Measured values: PMC9938897, “CvkR is a MerR-type transcriptional repressor of class 2 type V-K CRISPR-associated transposase systems”
Residue numbers refer to the chain shown, from its start.

B1: Pwt (dsDNA)
DNA 1: TTGTATAACATTATGTGTTTTGTATGGTATTTT
DNA 2: AAAATACCATACAAAACACATAATGTTATACAA
B2: P15-5 (dsDNA)
DNA 1: B1 DNA 1 with T12A
DNA 2: B1 DNA 2 with A22T
B3: Pcas12k (dsDNA)
DNA 1: AAGAAACATCCTATAGAAGCATCTTCTAAAACACATTAGTGCTTTGTATAACATTATGTGTTTTGTATGGTATTTTATTTTTA
DNA 2: TAAAAATAAAATACCATACAAAACACATAATGTTATACAAAGCACTAATGTGTTTTAGAAGATGCTTCTATAGGATGTTTCTT
B4: PtnsB (dsDNA)
DNA 1: AAAGGTTTTGTATATTTTCATAATGACAAATTGACTGTCGTTTTCTCCACGTTTAGAATAACATTATGTATTTATAAATT
DNA 2: AATTTATAAATACATAATGTTATTCTAAACGTGGAGAAAACGACAGTCAATTTGTCATTATGAAAATATACAAAACCTTT
B5: P45 (dsDNA)
DNA 1: TAAGAAACATCCTATAGAAGCATCTTCTAAAACACATTAGTGCTTT
DNA 2: AAAGCACTAATGTGTTTTAGAAGATGCTTCTATAGGATGTTTCTTA
B6: P43 (dsDNA)
DNA 1: TGCTTTGTATAACATTATGTGTTTTGTATGGTATTTTATTTTT
DNA 2: AAAAATAAAATACCATACAAAACACATAATGTTATACAAAGCA
B7: Pcas12kcenter (dsDNA)
DNA 1: CTAAAACACATTAGTGCTTTGTATAACATTATGTGTTTTGTAT
DNA 2: ATACAAAACACATAATGTTATACAAAGCACTAATGTGTTTTAG
B8: Ptracr (dsDNA)
DNA 1: TTAGCCCTCTATGCTTATAGTCTCCGCCTAGCTAGGCGAAGTTGACAAACATCTGAACCTTGAAAATATAATATGTAATA
DNA 2: TATTACATATTATATTTTCAAGGTTCAGATGTTTGTCAACTTCGCCTAGCTAGGCGGAGACTATAAGCATAGAGGGCTAA
B9: PtnsBcenter (dsDNA)
DNA 1: TTTAGAATAACATTATGTATTTATAAATTACCTTTGTTTCA
DNA 2: TGAAACAAAGGTAATTTATAAATACATAATGTTATTCTAAA
B10: PpsbAI (dsDNA)
DNA 1: GGAATAATTAACATTAAGAATTATTAATTCATGGGTTTTTAGTCTAGTAAATTTGCGTGAATTCATGTAAATTTTATGAG
DNA 2: CTCATAAAATTTACATGAATTCACGCAAATTTACTAGACTAAAAACCCATGAATTAATAATTCTTAATGTTAATTATTCC

What was measured:
[1] = molecular target: CvkR R42E (Anabaena sp. PCC 7120, UniProt A0ACD6B984 19-168, R60E); test: EMSA; EMSA: 10 mM Tris-HCl pH 8.0, 25 mM MgCl2, 50 mM NaCl, 1 mM DTT, 1 mM EDTA, 50 ug/mL poly(dI-dC), 0.01% NP-40, 10% glycerol, 2 nM probe, 25 C 30 min; footprinting: 50 mM Tris-HCl pH 8.0, 100 mM KCl, 2.5 mM MgCl2, 0.2 mM DTT, 10% glycerol, 2 ug salmon sperm DNA, RT; details: protein: recombinant; tags: 6xHis-SUMO removed by Ulp1; chain copies: 2; label: 5'-biotin; blunt
[2] = molecular target: T1, CvkR (Alr3614) (Anabaena sp. PCC 7120, UniProt A0ACD6B984 19-168); test: as above; details: protein: recombinant; tags: 6xHis-SUMO removed by Ulp1 (BamHI site; possible vector residues at N-term); chain copies: 2; label: 5'-biotin; blunt
[3] = molecular target: CvkRmut (Anabaena sp. PCC 7120, UniProt A0ACD6B984 19-168, R37A;R38A;Q41A;K58A;R60A;N84A); test: as above; details: protein: recombinant; tags: 6xHis-SUMO removed by Ulp1; chain copies: 2; label: 5'-biotin; blunt
[4] = molecular target: T1, CvkR (Alr3614); test: EMSA; no effect of mutation; EMSA: 10 mM Tris-HCl pH 8.0, 25 mM MgCl2, 50 mM NaCl, 1 mM DTT, 1 mM EDTA, 50 ug/mL poly(dI-dC), 0.01% NP-40, 10% glycerol, 2 nM probe, 25 C 30 min; footprinting: 50 mM Tris-HCl pH 8.0, 100 mM KCl, 2.5 mM MgCl2, 0.2 mM DTT, 10% glycerol, 2 ug salmon sperm DNA, RT; details: protein: recombinant; tags: 6xHis-SUMO removed by Ulp1 (BamHI site; possible vector residues at N-term); chain copies: 2; label: 5'-biotin; blunt

T1 sequence (A0ACD6B984 entry or part of it): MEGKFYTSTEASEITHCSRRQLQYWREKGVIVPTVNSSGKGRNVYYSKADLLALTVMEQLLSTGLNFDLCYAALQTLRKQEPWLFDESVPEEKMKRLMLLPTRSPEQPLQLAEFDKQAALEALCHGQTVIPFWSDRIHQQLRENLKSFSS
Chain of CvkR R42E (A0ACD6B984 entry or part of it R60E | R42E R42E): as the sequence (A0ACD6B984 entry or part of it) above, with R42E counted along it
Chain of CvkRmut (A0ACD6B984 entry or part of it R37A;R38A;Q41A;K58A;R60A;N84A): as the sequence (A0ACD6B984 entry or part of it) above, with R19A, R20A, Q23A, K40A, R42A, N66A counted along it

Binder	binding result [2]	also measured
B1	binds	binding result [1]: no binding; binding result [3]: no binding
B2	–	binding result [4]: binds
B3	binds	–
B4	binds	–
B5	no binding	–
B6	binds	–
B7	binds	–
B8	no binding	–
B9	binds	–
B10	no binding	–
